The source of these data is paper PMC6265464.

Series [1] concerns the target full-length 3× Flag-tagged R192F hFEN1 (human) (UniProt P39748). Briefly: co-IP.
Series [2] deals with hFEN1 D181A/R192F (1-333) (Homo sapiens, UniProt P39748 1-333, D181A;R192F). As to the kind of experiment: X-ray crystallography.
Chain of hFEN1 D181A/R192F (1-333) (P39748 1-333 D181A/R192F): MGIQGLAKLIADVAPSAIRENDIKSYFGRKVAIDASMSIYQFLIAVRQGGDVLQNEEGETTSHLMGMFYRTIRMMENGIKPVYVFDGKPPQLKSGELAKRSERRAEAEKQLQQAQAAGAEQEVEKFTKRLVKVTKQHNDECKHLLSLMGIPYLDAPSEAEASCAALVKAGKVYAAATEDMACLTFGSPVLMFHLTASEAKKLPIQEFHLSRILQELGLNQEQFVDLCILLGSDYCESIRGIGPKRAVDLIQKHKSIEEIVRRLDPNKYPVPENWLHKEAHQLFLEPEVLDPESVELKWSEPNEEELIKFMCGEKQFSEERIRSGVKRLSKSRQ

Chain of full-length 3× Flag-tagged R192F hFEN1 (human) (P39748 whole entry R192F): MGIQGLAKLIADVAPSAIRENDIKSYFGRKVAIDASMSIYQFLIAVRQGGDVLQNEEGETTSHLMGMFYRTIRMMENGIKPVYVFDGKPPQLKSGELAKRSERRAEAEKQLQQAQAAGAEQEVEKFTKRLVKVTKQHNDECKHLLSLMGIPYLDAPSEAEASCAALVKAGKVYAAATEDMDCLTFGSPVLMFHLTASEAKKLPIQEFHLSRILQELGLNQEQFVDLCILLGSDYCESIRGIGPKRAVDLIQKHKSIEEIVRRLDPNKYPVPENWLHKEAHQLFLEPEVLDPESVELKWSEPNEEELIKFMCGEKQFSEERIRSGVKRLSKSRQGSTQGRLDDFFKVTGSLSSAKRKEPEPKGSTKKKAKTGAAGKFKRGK

For the molecule “Cyclin E (from UniProt P24864 1-410) (natural protein)”, the percent lower interaction than with wild-type hFEN1 in series [1] turned out to be 70%.
Regarding “CDK2 (from UniProt P24941 1-298) (enzyme)”, in series [1], the percent lower interaction than with wild-type hFEN1 was determined as 40%.

B1: double-flap DNA (D181A/R192F crystal) (dsDNA)
DNA 1: CCTCTGCCTCAAGACGGG
DNA 2: GCCCGTCC
DNA 3: ACTTTGAGGCAGAG
B1: in series [2], the binding result is “binds”.
